From paper doi:10.1101/2022.07.07.499247
Like-named read-outs stand apart in the source and are kept apart here.

Legend:
[1] = molecular target: recombinant alpha tubulin of Plasmodium falciparum (Plasmodium falciparum); assay: MST
[2] = molecular target: recombinant alpha tubulin of Plasmodium falciparum (Plasmodium falciparum); assay: MST; remark: listed apart in the source

B1: recombinant Plasmodium falciparum cold shock protein PfCoSP (PF3D7_0109600) (natural protein)
chain: MLRRKIHIHFNSYKKHFFSQLINKEKHDKITGNVIMFDKRKGYGFIKPNDGGPDIFVHYTDICQSRTFEVTNEEKKKLAWNANMDITQKKEEYNFEYDNNNNNNNNKHNKKKEEIKKEFKYLVPGERVKFSVIYDEKSNSSKAINVDYID
Kd [1]: 274 nM | Kd [2]: 210 nM
